# Measured values as given in US8252764B2, “Compositions and methods of use of targeting peptides against placenta and adipose tissues” (priority 2000, dated 2012).
# Bridge positions count the residues as written; N and C are the ends. Square brackets hold non-standard residues; d marks the D form. Ends that are not written are not given here. Peptide text beside a SMILES is read from it. * marks the point of attachment. Cbz = O=C(OCc1ccccc1)*; CH2F = FC*
# Legend:
# [1] = biological target: T1, β5 integrin cytoplasmic domain (Homo sapiens, UniProt P18084); test: Binding of Fyn-phosphorylated phage to β5 cytoplasmic domain; conditions: for Phos/Unphos: Fyn-phosphorylated versus unphosphorylated phage; for β3 or β5/BSA / β3 or β5/GST: X4YX4 library phosphorylated with Fyn
# T1 construct: screenings involving the β5 cytoplasmic domain fusion protein
# T1 sequence (P18084 743-799 limits assumed): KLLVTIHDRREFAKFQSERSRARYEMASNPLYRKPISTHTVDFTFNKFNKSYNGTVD
# Method: (§1) Phosphorylation of peptide libraries with src family protein kinases (Fyn, c-Src, Lyn, and Syc) and serine/threonine kinases such as a MAP kinase were performed as described previously (Schmitz et al., 1996; Dente et al., 1997; Gram et al., 1997). Briefly, phage particles were collected from culture supernatants by double precipitation with 20% polyethylene glycol 8000 in 2.5 M NaCl. Particles were dissolved at 10^12 particles/ml. Purified phage (10 μl) were incubated for 3 hours at room temperature with different concentrations (35 to 3,500 units) of protein kinases in a reaction buffer volume of 50 μl. The reaction mixtures were transferred to tubes containing 10 μg of agarose-conjugated anti-P-Tyr, anti-P-Ser, or anti-P-Thr monoclonal antibodies to select phage displaying phosphorylated peptides. Bound phage were eluted by washing the column with 0.3 ml of elution buffer (0.1 M NaCl/glycine/1 mg/ml BSA, pH 2.35). The eluates were neutralized with 2 M Tris-base and incubated with 2 ml of a mid-log bacteria culture. Aliquots of 20 μl were removed for plating, and phage were harvested as described. The phosphorylation-selection step was repeated. Phosphorylated peptides binding to β3 and β5 cytoplasmic domains were analyzed as described in the previous section.
# (§2) Randomly selected clones from rounds III and IV were sequenced from a X4YX4 phosphorylated library with Fyn. Amino acid sequences of the phagemid encoded peptides were deduced from nucleotide sequences. […] The ratio of binding to β3 or β5 was calculated by dividing the number of β3 or β5 colonies by GST or BSA colonies found after panning. The ratio of binding to β3 or β5 with phosphorylated phage by Fyn versus unphosphorylated phage was calculated by dividing the number of colonies found after the panning.
# (§3) The effect of phosphorylation on the affinity and specificity of the cytoplasmic domain-binding was examined. Phage displaying the β3 and β5 cytoplasmic domain-binding peptides were phosphorylated in vitro as previously described (Schmitz et al., 1996; Dente et al., 1997; Gram et al., 1997), using Fyn kinase. Specific phosphorylation of the tyrosine-containing peptide on the surface of the phage was confirmed by using ^32P-gamma […] in the kinase reaction and by separating the phage pIII protein by SDS-PAGE.
# [2] = biological target: T2, β3 integrin cytoplasmic domain (Homo sapiens, UniProt P05106); test: Binding of Fyn-phosphorylated phage to β3 cytoplasmic domain; conditions: for Phos/Unphos: Fyn-phosphorylated versus unphosphorylated phage; for β3 or β5/BSA / β3 or β5/GST: X4YX4 library phosphorylated with Fyn
# T2 sequence (P05106 742-788 limits assumed): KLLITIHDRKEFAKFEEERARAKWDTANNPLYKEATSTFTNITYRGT
# Method: as §1, §2, §3
# SK-RC-49/APA cells = test: Phage binding specificity assay on SK-RC-49/APA cells; assay type: cell-based; conditions: phage displaying the peptide insert, data not shown
# Method: The cell binding assay was performed with an input of 10^9 TU as described for the cell panning. The specificity was confirmed by adding […] (SEQ ID NO:56) peptide to the binding medium in increasing concentrations. For phage binding on immunocaptured APA, wells were blocked for 1 h at room temperature with PBS/3% BSA and incubated with 10^9 TU for 1 h at room temperature in 50 μl PBS/3% BSA. After eight washes in PBS/1% BSA/0.01% Tween-20 and two washes in PBS, phage were rescued by adding 200 μl of exponentially growing K91Kan E. coli. Each experiment was repeated at least three times.
# [3] = biological target: T3, prohibition receptor protein complex (Mus musculus, UniProt P67778); test: Adipose receptor protein binding and immunoprecipitation
# T3 construct: from tissue; host or cells: mouse adipose tissue extract
# T3 sequence (P67778 2-272 limits assumed): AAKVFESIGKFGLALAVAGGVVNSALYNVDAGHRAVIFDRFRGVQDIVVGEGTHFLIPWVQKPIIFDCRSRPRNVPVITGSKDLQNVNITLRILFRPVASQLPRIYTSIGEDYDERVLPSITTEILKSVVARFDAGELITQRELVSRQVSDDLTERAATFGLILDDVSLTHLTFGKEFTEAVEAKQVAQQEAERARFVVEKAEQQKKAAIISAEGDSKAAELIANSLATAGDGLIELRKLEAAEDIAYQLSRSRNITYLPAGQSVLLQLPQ
# Method: A band of approximately 35,000 Daltons (35 kDa) was isolated from mouse adipose tissue extract that bound to […] (SEQ ID NO:22) conjugated to (KLAKLAK)2 (SEQ ID NO:1). […] The 35 kDa band was analyzed by mass spectrometry, which identified three proteins present in the sample.
# The three proteins included predominately a B cell receptor associated protein (prohibition), apolipoprotein E, and the voltage dependent anion channel (VDAC). Further studies were performed by immunoprecipitation, using either […] (SEQ ID NO:22) or CARAC (SEQ ID NO:12) conjugated to (KLAKAK)2 (SEQ ID NO:1) and precipitating with commercially available antibodies.
# It is unknown whether those proteins bound to the CARAC (SEQ ID NO:12) moiety or to (KLAKAK)2 (SEQ ID NO:1).
# HUVEC cells = test: Apoptosis assay in HUVEC (propidium iodide, chromatin fragmentation); assay type: cell-based, human
# Method: FIG. 26. Penetratin peptide chimera binding to the β5 cytoplasmic domain induces programmed cell death. 10^6 HUVEC cells were harvested in complete media and 15 μM penetratin peptide chimeras were added to the cells. […] (a) Profile obtained with starved cells after 24 h. (b) Confluent cells in complete media. (c) 15 μM of penetratin after four hours. (d) 15 μM of VISY-penetratin chimera after four hours.
# FIG. 30. Chimeric peptide containing VISY peptide linked to penetratin (antennapedia) induces apoptosis. VISY induced apoptosis was inhibited by addition of a caspase inhibitor (zVAD).
# Approximately 1×10^6 cells were harvested in complete media and 15 AM of peptide added for 4, 8, or 12 h. The cellswere then washed in PBS and resuspended in 0.5 ml propidium iodide solution (50 μg/ml PI, 0.1% Triton X-100, 0.1% sodium citrate). After a 24-h incubation at 4° C., cells were counted with a XL Coulter (Coulter Corporation) with a 488-nm laser; 12,000 cells were counted for each histogram, and cell cycle distributions were analyzed with Multicycle program.
# Approximately 1×10^6 cells were harvested in complete medium, and 15 μM of peptide was added for 4, 8, or 12 hours. The cells were then washed in PBS and resuspended in 0.5 ml propidium iodide solution (50 μg/ml PI, 0.1% Triton X-100, 0.1% sodium citrate). After a 24-h incubation at 4° C., the cells were counted with an XL Coulter (Coulter Corporation) with a 488 nm laser; 12,000 cells were counted for each histogram, and cell cycle distributions were analyzed with the Multicycle program.
# 10^6 HUVEC were treated with 15 μM of VISY antennapedia (penetratin) chimera or 15 μM of antennapedia peptide (pentratin) alone for 2-4 hours and chromatin fragmentation was analyzed by electrophoresis in an agarose gel.
# fat vasculature = assay type: in vivo
# Method: FIG. 10. Treatment of mouse obesity with fat vasculature-targeted apoptosis. Three cohorts (n=3) of (A) high-fat cafeteria diet-fed obese c57bl/6 mice; or (B) regular diet-fed old (˜1 year) c57bl/6 mice were each subcutaneously injected daily with equimolar amounts of the indicated peptides. Mouse body mass measurement was taken on days when injections were performed (injections were skipped on days for which body mass measurement is not shown). Error bars are SEM for the measurements in three mice.
# FIG. 11. Fat resorption induced by fat vasculature-targeted apoptosis. (A) Representative high-fat cafeteria diet-fed obese c57bl/6 mice; (B) and (C) representative regular diet-fed old (˜1 year) c57bl/6 mice; or (D) epididymal fat from representative regular diet-fed old c57bl/6 mice from the experiment described in FIG. 10. Whole mice (A), subcutaneous fat (B), peritoneal fat (C) and total epididymal fat (D) from the corresponding indicated treatments were photographed 1 week (A) or 3 weeks (B), (C) and (D) after the beginning of subcutaneous injections. The injected peptides were […] (SEQ ID NO:22) linked to (KLAKLAK)2 (SEQ ID NO:1) (left column), CARAC (SEQ ID NO:12) linked to (KLAKLAK)2 (SEQ ID NO:1) (middle column), and […] (SEQ ID NO:22) co-administered with (KLAKLAK)2 (SEQ ID NO:1) (right column).
# FIG. 12. Destruction of fat blood vessels as a result of targeted apoptosis. (A) Tunnel immunohistochemistry, (B) secondary antibody only negative tunnel staining control and (C) and (D) hematoxylin/eosin staining of white fat of mice. (A), (B) and (C) Mice were treated with […] (SEQ ID NO:22) linked to (KLAKLAK)2 (SEQ ID NO:1). (D) Mice were treated with CARAC (SEQ ID NO:12) linked to (KLAKLAK)2 (SEQ ID NO:1). Apoptosis (arrows, (A)) and necrosis/lymphocyte infiltration (arrows, (C)) in response to […] (SEQ ID NO:22) linked to (KLAKLAK)2 (SEQ ID NO:1) treatment are indicated. Bar: 10 μm.
# Stocks of […] (SEQ ID NO:22) fused to (KLAKLAK)2 (SEQ ID NO:1); (KLAKLAK)2 (SEQ ID NO:1) alone; CARAC (SEQ ID NO:12) fused to (KLAKLAK)2 (SEQ ID NO:1); and […] (SEQ ID NO:22) peptide were chemically synthesized, cyclized using the terminal cysteines and HPLC-purified to >90% (Anaspec). Lyophilized peptides were dissolved in DMSO to a concentration of 65 mM to make stock solutions. A total of 150 μl of 0.65 mM peptide solution in PBS was subcutaneously injected daily in the back of C57BL/6 males, after body mass was measured each day. High-fat cafeteria diet for obesity induction (TD97366: 25.4% fat, 21.79% protein, 38.41% carbohydrate) was purchased from Harlan Teklad. Mice were pre-fed with TD97366 prior to the initiation of treatment with adipose targeting peptides to induce diet-related obesity.
molecule,measurement,setting,value
TMLRYTVRL,Phos/Unphos,[1],14.3
same,β3 or β5/BSA,[1],2.2
same,β3 or β5/GST,[1],3.4
GGGSYRHVE,Phos/Unphos,[2],13.2
same,β3 or β5/BSA,[2],5.3
same,β3 or β5/GST,[2],1.5
CGTGCAVECEVVC,selective binding of phage to SK-RC-49/APA cells,SK-RC-49/APA cells,no selective binding
CKGGRAKDC,enrichment of prohibition receptor protein complex in precipitated fraction compared to CARAC precipitated fraction,"[3]; immunoprecipitation, SDS-PAGE, data not shown",over a ten-fold enrichment
"VISY-penetratin chimera: VVISYSMPD (β5 cytoplasmic domain-binding peptide) coupled to penetratin, plus a biotin moiety (VVISYSMPDRQIKIWFQNRRMKWKK; also: biotin moiety, place not given here)",induction of apoptosis (chromatin fragmentation),"HUVEC cells; 10^6 HUVEC, 15 μM, 2-4 hours",induction of apoptosis
same,induction of apoptosis (propidium iodide staining),"HUVEC cells; HUVEC, 15 μM, four hours",induction of apoptosis
TMLRYFMFP,Phos/Unphos,[1],4.2
same,β3 or β5/BSA,[1],3.8
same,β3 or β5/GST,[1],2.3
MLLGYRFEK,Phos/Unphos,[2],2.5
same,β3 or β5/BSA,[2],2.7
same,β3 or β5/GST,[2],3.5
TLRKYFHSS,Phos/Unphos,[1],3.8
same,β3 or β5/BSA,[1],15.2
same,β3 or β5/GST,[1],3.8
"COC(=O)C[C@H](NC(=O)[C@H](C)NC(=O)[C@@H](NC(=O)OCc1ccccc1)C(C)C)C(=O)CF [zVAD, reference compound] (Cbz-Val-Ala-Asp(OMe)-CH2F)",inhibition of VISY chimeric peptide induced apoptosis,HUVEC cells; added to the media at the same time as the VISY chimeric peptide,up to 70%
CC(C)C[C@@H](NC(=O)[C@@H](CCCCN)NC(=O)CNC(=O)CNC(=O)[C@@H]1CSSC[C@H](N)C(=O)N[C@@H](CCCCN)C(=O)NCC(=O)NCC(=O)N[C@@H](CCCNC(=N)N)C(=O)N[C@@H](C)C(=O)N[C@@H](CCCCN)C(=O)N[C@@H](CC(=O)O)C(=O)N1)C(=O)N[C@H](C)C(=O)N[C@H](CCCCN)C(=O)N[C@H](CC(C)C)C(=O)N[C@H](C)C(=O)N[C@H](CCCCN)C(=O)N[C@H](CCCCN)C(=O)N[C@H](CC(C)C)C(=O)N[C@H](C)C(=O)N[C@H](CCCCN)C(=O)N[C@H](CC(C)C)C(=O)N[C@H](C)C(=O)N[C@H](CCCCN)C(=O)O (H-CKGGRAKDCGG[dK][dL][dA][dK][dL][dA][dK][dK][dL][dA][dK][dL][dA][dK]-OH; disulfide 1-9),mortality in genetically obese mice,"fat vasculature; genetically obese mice, not in normal obese mice",occasionally observed to result in mortality within a few days of injection
same,abnormalities in other organs,"fat vasculature; mouse, in vivo",No abnormalities in other organs
CARAC-(KLAKLAK)2: control CARAC (SEQ ID NO:12) fused to (KLAKLAK)2 (SEQ ID NO:1) (CARACKLAKLAKKLAKLAK) [reference compound],histopathological analysis of white fat,"fat vasculature; TUNEL, hematoxylin/eosin",no vascular apoptosis or fat necrosis
same,body mass change (in words),"fat vasculature; high-fat cafeteria diet-fed obese C57BL/6 mice, equimolar amount, sc daily",did not show a significant body mass decrease
same,binding of 35 kDa band from mouse adipose tissue extract,[3]; data not shown,much less binding
same,"binding to VDAC, prohibition and apolipoprotein E",[3]; immunoprecipitation,low levels of non-specific binding to all three proteins
